Test results from the nanobody polyreactivity screen of Harvey et al. (2022).

Assay: yeast display, Sf9 membrane polyspecificity reagent, FACS + sequencing; frameworks hold sequencing errors
Summary of the method: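 After 36–48 hours of galactose induction, yeast (Saccharomyces cerevisiae BJ5465) displaying a synthetic nanobody library were stained at 4 °C for 1 hour with 10% biotinylated, detergent-solubilized Sf9 membrane reagent. Streptavidin microbeads enriched the stained cells before FACS sorting into low and high (top ~1%) gates on anti-HA and streptavidin fluorescence. Each clone's polyreactivity label reflects its gate of origin.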

QVQLEESGGGLVQAGGSLRLSCAASGSTFGYYAMGWYRQAPGKERELVAAISRSGGITYYADSVKGRFTISRDNAKNTVYLQMNSLKPDDTAVYYCAADRNRYTGEDDSWGQGTQVTVSS
polyreactivity (PSR sort gate): low polyreactivity

QVQLEESGGGLVQAGGSLRLSCAASGSTFPYYAMGWYRQAPGKERELVAVITSSGSRTYYADSVKGRFTISRDNAKNTVYLQMNSLKPEDTAVYYCARDTRYYRPNRSQYDYWGQGTQVTVSS
polyreactivity (PSR sort gate): high polyreactivity

QVQLEESGGGLVQAGGSLRLSCAASGSTFSDNAKAWYRQATGKVRELVADITWSGGSTHYADSVKGRFTFSRDNAKNTVYLQMTSLKPEDTSVYYCARDNYKEGDYWGQGTKVTVSS
polyreactivity (PSR sort gate): low polyreactivity

QVQLEESGGGLVQAGGSLRLSCAASGSTFSRYAMGWYRPAPGKEREFVAAISRRAGGTYYADSVKGRFTISRDNAKNTVYLQMNSLKPEDTAVYYCATVLPRDYIGRATYDYWGQGTQVTVSS
polyreactivity (PSR sort gate): high polyreactivity

QVQLEESGGGLVQAGGSLRLSCAASGSTFVPYAMGWYRQAPGKERELVASISWRGGSTSYADSVKGRFTISRDNAKNTVYLQMNSLKPEDTAVYYCAADLGLDYDDAQTRVVVTSEDYWGQGTQVTVSS
polyreactivity (PSR sort gate): high polyreactivity

QVQLEESGGGLVQAGGSLRLSCAASGSTFWPYSMGWYRKATGKERELVAAITLRGGTTYYADSVKGRFTISRDNAMNTVYFQMNSLKPEDTAVYYCNADDYHYFSYDYWGQGTQVTVSS
polyreactivity (PSR sort gate): low polyreactivity

QVQLEESGGGLVQAGGSLRLSCAASGSTFWVYVMGWYRQAPGKERELVATIRWSTSSTYADSVKGRFTISRDNAKNTVYLQMNILKPEDTAVYYCNTYPRGNWGNFVEQDYDYWGQGTQVTVSS
polyreactivity (PSR sort gate): low polyreactivity

QVQLEESGGGLVQAGGSLRLSCAASGSTSTYNAMGWYRQAPGKERELVAAITESGGSTYYADSVKGRFTISRDNAKNTVYLQMNSLKPEDTAVYYCNTGYGLVDFLYGYYYWGQGTQVTVSS
polyreactivity (PSR sort gate): low polyreactivity

QVQLEESGGGLVQAGGSLRLSCAASGYIFQSYAMGWYRQAPGTERELVAAISRGGSTYYADSVKGRFTISRDNAMNSVYLQMNSLKPEDTAVYYCNTLTVGGFRRYYYWGQGSQVTVSS
polyreactivity (PSR sort gate): high polyreactivity

QVQLEESGGGLVQAGGSLRLSCAASRSTLDGYAMGWYRQAPGKERELVDAITFSGGITYYADSVKVRFTISRDNAKNTVYLQMNILKPEDTAVYYCAADISTWTTWSGTEYDYLGQGTQVTVSS
polyreactivity (PSR sort gate): low polyreactivity

QVQLEESGGGLVQAGGSLRLSCAASVSNLYYYPMGWYRQATRKERELVASIRNGGSTYYADSVKGLFTISRDNAKNTVYLQMNSLKPEDTAVYYCNARVSRSFRARYNYWGQGSQVTVSS
polyreactivity (PSR sort gate): high polyreactivity

QVQLEESGGGLVQAGGSLRLSCAGSGFISNGYALGWYRQAPGKEREFVASISSTGGRTYYADSVKGRFTISRDNAKNTVYLLMNSLKPEDTSVYYCAKDPQPRYWVDYWGQGTQVTVSS
polyreactivity (PSR sort gate): low polyreactivity

QVQLEESGGGLVQAGGSLRLSCAGSGNIFPSYALGWYRQAPGKERELVAAITYSAVSTYYADSVKGRFTISRDNAKNTVYLQMNSLKPEDTAVYYCAKETTEVPGVGSQEMDFWGQGTQVTVSS
polyreactivity (PSR sort gate): low polyreactivity

QVQLEESGGGLVQAGGSLRLSCASYGRIFPFYALGWYRQAPRKERELVARISRRGGSTYYADSVKGRFTISRDNAKNNVYLQMNSLKPEDTAVYYCASSQAVYDGWYAKFGYWGQGTQVTVSS
polyreactivity (PSR sort gate): low polyreactivity

QVQLEESGGGLVQAGGSLRLSCASYGSTFTYNAMGLYIQAPAKERELVAVIRPGGTTNYADSVKGRFTISRDNAKNSVYLQMNSLKPVDTAVYYCAADVRRYDGYDYWGQGTQVTVSS
polyreactivity (PSR sort gate): low polyreactivity

QVQLEESGGGLVQAGGSLRLSCPASGLTFDCYAMGWYRQAPGKERELVAAITSVGSTYYADSVKGRFTISRDNAKNTVYLQMTSLKPEDTAVYYCAVEGVIWCFWPYEYWGQGTQVTVSS
polyreactivity (PSR sort gate): high polyreactivity

QVQLEESGGGLVQAGGSLRLSWAASGRTIAAYAMGWYRQAPGKERELVAAISIGGSTNYADSVKGRFTISRDNAKNTVYLQMNSLKPEDTAVYYCAAPRRRYLRARIRYEYWGQGTQVTVSS
polyreactivity (PSR sort gate): high polyreactivity
